Data: the supplement of paper PMC7877785
± gives the uncertainty stated by the source.

Assay: self-splicing fitness, log relative to wild type (ln ratio); higher = more splicing; Tetrahymena group I intron in knt gene, E. coli kanamycin selection, DiMSum; sequences stand for … in CUCUCU…GGAGGGAAAAGUUAUCAGGCAUGCACCUGGUAGCUAGUCUUUAAACCAAUAGAUUGCAUCGGUUUAAAAGGCAAGACCGUCAAAUUGCGGGAAAGGGGUCAACAGCCGUUCAGUACCAAGUCUCAGGGGAAACUUUGAGAUGGCCUUGCAAAGGGUAUGGUAAUAAGCUGACGGACAUGGUCCUAACCACGCAGCCAAGUCCUAAGUCAACAGAUCUUCUGUUGAUAUGGAUGCAGUUCACAGACUAAAUGUCGGUCGGGGAAGAUGUAUUCUUCUCAUAAGAUAUAGUCGGACCUCUCCUUAAUGGGAGCUAGCGGAUGAAGUGAUGCAACACUGGAGCCGCUGGGAACUAAUUUGUAUGCGAAAGUAUAUUGAUUAGUUUUGGAGUACUCGUGGUCG
Method in brief: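 Colonies from six replicate transformations of E. coli BL21(DE3) were pooled and amplicon-sequenced on an Illumina HiSeq 2500. The library placed an intron with all eight P1ex-region nucleotides randomised inside the knt kanamycin-resistance gene on pET-22b(+), and cells grew overnight at 37°C or 30°C on LB agar with or without 25 μg/mL kanamycin (plus 100 μg/mL carbenicillin, 50 μM IPTG, 0.2% rhamnose). Fitness is the DiMSum error-weighted combination of wild-type-normalised replicate fold changes, kanamycin versus none.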

Sequence | self-splicing fitness (ln) (30 °C) | self-splicing fitness (ln) (37 °C)
AACAAGCAAUAUUACGCAAG | -1.88 ± 0.084 | -0.493 ± 0.086
AACAAGCAAUAUUACGCGGC | -3.28 ± 0.26 | -1.71 ± 0.19
AACAAGCAAUAUUACGCGUU | -3.91 ± 0.2 | -3.32 ± 0.18
AACAAGCAAUAUUACGCUUA | -2.08 ± 0.1 | -1.21 ± 0.1
AACAAGCAAUAUUACGGAAG | -3.98 ± 0.18 | -2.74 ± 0.15
AACAAGCAAUAUUACGGACA | -1.6 ± 0.094 | 0.312 ± 0.095
AACAAGCAAUAUUACGGACC | -1.84 ± 0.1 | -0.201 ± 0.11
AACAAGCAAUAUUACGGCGC | -0.737 ± 0.1 | 0.0559 ± 0.12
AACAAGCAAUAUUACGUAAG | -1.93 ± 0.058 | -1.16 ± 0.077
AACAAGCAAUAUUACGUCAC | -3.77 ± 0.22 | -2.29 ± 0.23
AACAAGCAAUAUUACGUGAU | -2.2 ± 0.069 | -1.46 ± 0.08
AACAAGCAAUAUUACGUUAA | -2.55 ± 0.15 | -1.67 ± 0.14
AACAAGCAAUAUUACGUUAG | -4.21 ± 0.22 | -3.26 ± 0.24
AACAAGCAAUAUUACGUUCA | -1.41 ± 0.053 | -0.805 ± 0.063
AACCAGCAAUAUUACGAAGC | -3.37 ± 0.13 | -0.929 ± 0.099
AACCAGCAAUAUUACGAUAU | -0.891 ± 0.057 | -0.0726 ± 0.089
AACCAGCAAUAUUACGAUUG | -3.19 ± 0.15 | -1.48 ± 0.11
AACCAGCAAUAUUACGCACC | 0.0606 ± 0.077 | 0.308 ± 0.1
AACCAGCAAUAUUACGCAGA | -1.76 ± 0.11 | -1.37 ± 0.11
AACCAGCAAUAUUACGCUCC | -0.493 ± 0.094 | -0.0692 ± 0.12
AACCAGCAAUAUUACGGAAC | -2.13 ± 0.091 | -1.04 ± 0.088
AACCAGCAAUAUUACGGACG | 0.131 ± 0.059 | -0.143 ± 0.07
AACCAGCAAUAUUACGGAUA | -0.931 ± 0.069 | -0.176 ± 0.074
AACCAGCAAUAUUACGGAUG | -0.77 ± 0.058 | -0.508 ± 0.072
AACCAGCAAUAUUACGGCGA | -0.304 ± 0.075 | 0.19 ± 0.11

Sequence | self-splicing fitness (ln) (30 °C) | self-splicing fitness (ln) (37 °C)
AACCAGCAAUAUUACGGGCG | -0.173 ± 0.068 | 0.356 ± 0.081
AACCAGCAAUAUUACGGGGA | -2.46 ± 0.097 | -1.09 ± 0.089
AACCAGCAAUAUUACGGGUG | -1.14 ± 0.046 | -0.409 ± 0.064
AACCAGCAAUAUUACGGUCU | -0.594 ± 0.048 | -0.249 ± 0.066
AACCAGCAAUAUUACGUAAG | -1.28 ± 0.059 | -0.259 ± 0.072
AACCAGCAAUAUUACGUAUG | -2 ± 0.076 | -0.882 ± 0.072
AACCAGCAAUAUUACGUCCA | -0.505 ± 0.061 | -0.595 ± 0.068
AACCAGCAAUAUUACGUUUA | -1.01 ± 0.062 | -0.649 ± 0.074
AACCAGCAAUAUUACGUUUC | -4.08 ± 0.17 | -2.92 ± 0.21
AACGAGCAAUAUUACGAAAC |  | -2.37 ± 0.22
AACGAGCAAUAUUACGAAGC | -3.92 ± 0.42 | -1.91 ± 0.37
AACGAGCAAUAUUACGAGUC |  | -2.63 ± 0.44
AACGAGCAAUAUUACGAUCU | -0.758 ± 0.088 | -0.0761 ± 0.1
AACGAGCAAUAUUACGCAGC | -2.29 ± 0.29 | 
AACGAGCAAUAUUACGCAGU | -2.87 ± 0.23 | -2.52 ± 0.29
AACGAGCAAUAUUACGCGCC | -2.77 ± 0.3 | -2.61 ± 0.48
AACGAGCAAUAUUACGCUAG | -3.61 ± 0.25 | -2.92 ± 0.43
AACGAGCAAUAUUACGCUUA | -2.86 ± 0.26 | -1.31 ± 0.2
AACGAGCAAUAUUACGGCGC | -2.14 ± 0.18 | -1.31 ± 0.16
AACGAGCAAUAUUACGGCUC | -2.49 ± 0.44 | 
AACGAGCAAUAUUACGGGGC | -4.03 ± 0.27 | -3.46 ± 0.35
AACGAGCAAUAUUACGGUCA | -2.05 ± 0.21 | -1.12 ± 0.2
AACGAGCAAUAUUACGGUUA | -1.84 ± 0.18 | -0.413 ± 0.15
AACGAGCAAUAUUACGGUUU | -2.07 ± 0.079 | -0.83 ± 0.089
AACGAGCAAUAUUACGUAUU | -3.1 ± 0.16 | -1.85 ± 0.14

Sequence | self-splicing fitness (ln) (30 °C) | self-splicing fitness (ln) (37 °C)
AACGAGCAAUAUUACGUCCG |  | -2.07 ± 0.29
AACGAGCAAUAUUACGUCGA |  | -2.06 ± 0.21
AACGAGCAAUAUUACGUGAA | -3.48 ± 0.19 | -3.65 ± 0.24
AACGAGCAAUAUUACGUUGC | -4.01 ± 0.18 | -3.16 ± 0.19
AACGAGCAAUAUUACGUUUC | -3.05 ± 0.19 | -2.42 ± 0.19
AACUAGCAAUAUUACGAAGC | -2.35 ± 0.4 | -0.29 ± 0.35
AACUAGCAAUAUUACGAAGU | -3.67 ± 0.3 | -2 ± 0.13
AACUAGCAAUAUUACGAGAC | -1.96 ± 0.44 | 
AACUAGCAAUAUUACGAGAG | -3.61 ± 0.12 | -1.84 ± 0.11
AACUAGCAAUAUUACGAGCG | -0.883 ± 0.089 | -0.592 ± 0.098
AACUAGCAAUAUUACGCAAA | -2.38 ± 0.13 | -1.72 ± 0.1
AACUAGCAAUAUUACGCAAU | -2.35 ± 0.13 | -2.15 ± 0.16
AACUAGCAAUAUUACGCACA | -0.559 ± 0.061 | 0.145 ± 0.077
AACUAGCAAUAUUACGCUAA | -2.06 ± 0.11 | -1.51 ± 0.12
AACUAGCAAUAUUACGCUGU | -3.41 ± 0.16 | -3.84 ± 0.32
AACUAGCAAUAUUACGGAAC | -2.99 ± 0.21 | -2.08 ± 0.3
AACUAGCAAUAUUACGGACU | -1.36 ± 0.24 | 0.037 ± 0.28
AACUAGCAAUAUUACGGCAG | -1.09 ± 0.094 | -0.755 ± 0.095
AACUAGCAAUAUUACGGCCC | -1.6 ± 0.17 | -0.325 ± 0.24
AACUAGCAAUAUUACGGGCU | -1.29 ± 0.11 | -1.19 ± 0.16
AACUAGCAAUAUUACGGUAU | -1.31 ± 0.072 | -0.479 ± 0.092
AACUAGCAAUAUUACGGUUA | -0.722 ± 0.084 | -0.482 ± 0.083
AACUAGCAAUAUUACGUACC | -1.14 ± 0.1 | -0.0487 ± 0.14
AACUAGCAAUAUUACGUAUG | -3.11 ± 0.11 | -1.22 ± 0.11
AACUAGCAAUAUUACGUGCA | -0.72 ± 0.054 | -0.578 ± 0.065

Sequence | self-splicing fitness (ln) (30 °C) | self-splicing fitness (ln) (37 °C)
AACUAGCAAUAUUACGUGGA | -2.28 ± 0.11 | -1.61 ± 0.1
AACUAGCAAUAUUACGUUAU | -2.63 ± 0.11 | -1.75 ± 0.12
AACUAGCAAUAUUACGUUGA | -1.52 ± 0.11 | -1.04 ± 0.12
AAGAAGCAAUAUUACGAAAC | -1.82 ± 0.17 | -0.859 ± 0.15
AAGAAGCAAUAUUACGAAAG | -3.5 ± 0.21 | -1.69 ± 0.13
AAGAAGCAAUAUUACGACGU | -0.168 ± 0.068 | 0.298 ± 0.1
AAGAAGCAAUAUUACGAGAG | -4.49 ± 0.36 | -2.41 ± 0.2
AAGAAGCAAUAUUACGAGUG | -2.04 ± 0.12 | -1.23 ± 0.13
AAGAAGCAAUAUUACGAUGA | -0.962 ± 0.096 | -0.249 ± 0.09
AAGAAGCAAUAUUACGAUUA | -0.809 ± 0.11 | 0.095 ± 0.11
AAGAAGCAAUAUUACGCACU | -0.114 ± 0.063 | -0.103 ± 0.081
AAGAAGCAAUAUUACGCCAA | -2.24 ± 0.25 | -1.04 ± 0.21
AAGAAGCAAUAUUACGCCCC | -0.875 ± 0.12 | -0.358 ± 0.17
AAGAAGCAAUAUUACGCCUU | -3.53 ± 0.4 | -2.17 ± 0.33
AAGAAGCAAUAUUACGCUAG | -2.36 ± 0.14 | -0.458 ± 0.13
AAGAAGCAAUAUUACGCUCU | -3.54 ± 0.24 | -1.37 ± 0.18
AAGAAGCAAUAUUACGCUGA | -2.47 ± 0.14 | -2.04 ± 0.18
AAGAAGCAAUAUUACGGAGA | -3.38 ± 0.19 | -2.62 ± 0.2
AAGAAGCAAUAUUACGGCAC | -0.764 ± 0.08 | -0.298 ± 0.12
AAGAAGCAAUAUUACGGCAU | 0.143 ± 0.12 | -0.43 ± 0.16
AAGAAGCAAUAUUACGGCCC | -0.651 ± 0.13 | -0.518 ± 0.16
AAGAAGCAAUAUUACGGGAA | -1.79 ± 0.14 | -1.85 ± 0.13
